Experimental data taken from patent US7241873B2, “Recombinant anti-osteopontin antibody and use thereof” (Juridical Foundation the Chemo-sero-therapeutic Research …, priority 2001, dated 2007).

Assays:
[1] = system: adhesion of TIG-7 cell to vitronectin (VN) or fibronectin (FN); test: TIG-7 cell adhesion to vitronectin or fibronectin; assay type: cell-based, human
[2] = system: adhesion of α9-transformed SW480 cell to vitronectin; test: Adhesion of α9-transformed SW480 cell to vitronectin; assay type: cell-based, human; conditions: FIG. 2B
[3] = system: adhesion of human fibroblast TIG-7 to CHO/OPN-a; test: Inhibition of TIG-7 cell adhesion to OPN; assay type: cell-based
Procedure: (§1) It was examined by the following method as to whether or not the murine monoclonal antibodies inhibited cell adhesion to OPN. First, a 96-well plate was precoated with various concentrations of the CHO/OPN-a at 4° C. overnight, which was then treated with 0.5% BSA in PBS under conditions of 37° C. for 10 minutes, so as to block non-specific adhesion. A human fibroblast TIG-7 or SW480 cell transformed with the cDNA of an integrin subunit α9 (referred to as “α9-transformed SW480 cell” hereinafter) was suspended in D-MEM containing 0.25% BSA; 200 μl of the resulting cell suspension (at a cell concentration of 5×10^4 cells/well) was injected in a 96-well plate precoated with the CHO/OPN-a or nOPN, in the presence or absence of various concentrations of the monoclonal antibodies or synthetic peptides, for incubation at 37° C. for one hour.
(§2) The culture medium was discarded from the plate, and all the wells were rinsed twice with D-MEM containing 0.25% BSA. The adherent cells were fixed and stained with 0.5% crystal violet in 20% methanol for 30 minutes.
All the wells were rinsed three times with water, and the adherent cells were then solubilized into 20% acetic acid. The resulting supernatant recovered from each well was analyzed with an immunoreader, to measure the absorbance at 590 nm to determine the relative count of the cells adhering to the well. All the assays were done in a triplicate fashion, and at least three independent experiments were performed. The values shown represent mean at three independent experiments.

[4] = system: adhesion of α9-transformed SW480 cell to nOPN; test: Adhesion of α9-transformed SW480 cell to nOPN; assay type: cell-based, human; conditions: FIG. 2B
Procedure: as §1, §2
All the wells were rinsed three times with water, and the adherent cells were then solubilized into 20% acetic acid. The resulting supernatant recovered from each well was analyzed with an immunoreader, to measure the absorbance at 590 nm to determine the relative count of the cells adhering to the well. […]

[5] = system: human peripheral neutrophil migration toward thrombin-cleaved OPN; test: Migration of TNF-α-activated human peripheral neutrophil toward thrombin-cleaved OPN; assay type: cell-based; conditions: for Mean migrating cell counts per 1 mm^3 (neutrophil): thrombin-cleaved OPN 10 μg/mL
Procedure: (§3) By the Ficoll method, a monocyte fraction and a neutrophil fraction were separated from normal human peripheral blood (P. M. Daftarian et al., (1996): Journal of Immunology, 157, 12–20). The intermediate layer between Ficoll and serum was collected and cultured in a flask at 37° C. for one hour. The resulting attached cell was used as monocyte. To the erythrocyte layer remaining after collection of the monocyte fraction was added a 5-fold volume of 3% dextran-PBS to aggregate erythrocyte, followed by centrifugation at 150×g and 4° C. for 5 minutes.
(§4) The aggregated erythrocyte was precipitated, while in the resulting supernatant, neutrophil existed in suspended state. Then, the fraction was centrifuged at 500×g and ambient temperature for 20 minutes, to recover neutrophil. The monocyte and neutrophil as recovered in such manner were cultured overnight with human TNF-α (20 ng/mL) for activation. Then, the resulting activated monocyte and neutrophil were used for migration experiments.
(§5) The migration experiments were done, using a 48-well micro chemotaxis chamber (manufactured by Neuro Probe Inc.). After various concentrations of the murine 2K1 antibody were added to the thrombin-cleaved OPN and were then preliminarily left to stand at 37° C. for 15 minutes, the mixtures were added to the lower chamber (to a final human OPN concentration of 10 μg/mL). Placing thereon a polycarbonate filter (pore size of 5 μm), further, a cell suspension (2×10^6 cells/mL) of 50 μL was added to the upper chamber.
(§6) After culturing in the presence of 5% CO2 at 37° C. for 2 hours, the polycarbonate filter was removed to discard the cells on the upper surface of the filter; subsequently, the cells infiltrating to the back face of the filter were stained with Diff-Quick (manufactured by Baxter International Inc.). The stained cells were counted at a magnification×40. The results are shown as mean cell counts (cells/mm^3)±SD in 6 wells.

[6] = system: human peripheral monocyte migration toward thrombin-cleaved OPN; test: Migration of TNF-α-activated human peripheral monocyte toward thrombin-cleaved OPN (murine 2K1); assay type: cell-based; conditions: for Mean migrating cell counts per 1 mm^3 (monocyte): thrombin-cleaved OPN 10 μg/mL
Procedure: as §3, §4, §5, §6

[7] = system: OPN-induced migration of human monocyte U937; test: OPN-induced U937 cell migration test (ChemoTx); assay type: cell-based; conditions: U937, OPNs 10 μg/ml, antibody 50 μg/ml, FIG. 3b
Procedure: A cell migration test using the U937 cell was performed by using a system ChemoTx101-8 (Neuro Probe Inc.). The cell was adjusted to 2×10^6 cells/ml with D-MEM containing 0.1% BSA, which was then applied to the upper layer on a filter (with a pore size of 8 μm), while the OPN protein was added to the lower layer.
The ChemoTx plate was left to stand in the presence of 5% CO2 at 37° C. for 4 hours. After the plate was left to stand, the filter was fixed with methanol, and was then stained with hematoxylin and eosin (H-E). The number of the cells migrating to the back face of the filter was counted with a microscope (magnification×400). The test was done in a triplicate manner, and the mean was used as data.

[8] = biological target: T1, human OPN (GST-OPN-a, GST-OPN-b, GST-OPN-c, GST-N half, GST-C half, CHO/OPN-a, thrombin-cleaved OPN) (Homo sapiens, UniProt P10451); test: Western blotting of murine monoclonal antibodies with OPN and thrombin digestion products; assay type: binding
T1 construct: cDNAs encoding the full-length human OPN-a and OPN-b individually including the respective signal peptide regions; made in house; host or cells: Escherichia coli JM109
Procedure: (§7) The binding potencies of the murine monoclonal antibodies 2K1 (referred to as “murine 2K1 antibody” hereinafter) and 4C1 recovered in the Example 2 to OPN and the thrombin digestion products thereof were tested by Western blotting method. […] Further, these monoclonal antibodies were not only bound to the recombinant OPNs of non-glycosylated type as generated in Escherichia coli but also reacted with the CHO/OPN-a protein of sugar-chain-bound type and the thrombin digestion products thereof (referred to as “thrombin-cleaved OPN” hereinafter).

[9] = system: human OPN (GST-OPN-a, GST-OPN-b, GST-OPN-c, GST-N half, GST-C half, CHO/OPN-a, thrombin-cleaved OPN); test: as above; assay type: binding
Procedure: as §7

T1 sequence (P10451 17-168): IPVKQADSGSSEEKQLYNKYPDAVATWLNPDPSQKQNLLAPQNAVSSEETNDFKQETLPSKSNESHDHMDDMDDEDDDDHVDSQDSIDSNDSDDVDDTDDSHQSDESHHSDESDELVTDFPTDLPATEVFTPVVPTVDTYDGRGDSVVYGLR

B1: murine 2K1 antibody: murine monoclonal antibody from mice immunized with Peptide 1 (…) of human OPN; hybridoma FERM BP-7883 (antibody, V domains shown)
VH: QVQLQQSGAELVRPGASVKLSCKALGYTFTDYEMHWVKQTPVHGLEWIGAIHPGRGGTAYNQKFKGKATLTADKSSSTAYMELSSLTSEDSAVYYCTRITGYFDVWGAGTTVTVSS
VL: DVLMTQTPLSLPVSLGDQASISCRSSQSIVHSNGNTYLEWYLQKPGQSPKLLIYKVSNRFSGVPDRFSGSGSGTDFTLKISRVEAEDLGVYYCFQGSHVPLTFGAGTKLELKR
notes: murine monoclonal antibody from mice immunized with Peptide 1 (…) of human OPN; hybridoma FERM BP-7883
inhibition of adhesion of TIG-7 cell to vitronectin (VN) or fibronectin (FN) [1]: never inhibit
inhibition of adhesion between α9-transformed SW480 cell and vitronectin [2]: never inhibited
effect on the inhibition of cell adhesion, comparison and concentration dependence ([3]; TIG-7, FIG. 1C): comparative to the effect exerted by mAb53 and is concentration-dependent
inhibition of cell adhesion to OPN ([3]; antibody 200 μg/ml, TIG-7, FIG. 1B): apparently inhibited
inhibition of adhesion between SW480 cell and nOPN [4]: inhibited
inhibition of migration of TNF-α-activated human peripheral neutrophil toward thrombin-cleaved OPN [5]: inhibited
Mean migrating cell counts per 1 mm^3 (neutrophil) ([5]; antibody 0.4 μg/mL): 566.7 ± 60.2 counts per 1 mm^3
Mean migrating cell counts per 1 mm^3 (neutrophil) ([5]; antibody 2 μg/mL): 550.0 ± 49.0 counts per 1 mm^3
Mean migrating cell counts per 1 mm^3 (neutrophil) ([5]; antibody 10 μg/mL): 450.0 ± 90.8 counts per 1 mm^3
Mean migrating cell counts per 1 mm^3 (neutrophil) ([5]; antibody 50 μg/mL): 426.7 ± 30.8 counts per 1 mm^3
inhibition of migration of TNF-α-activated human peripheral monocyte toward thrombin-cleaved OPN [6]: inhibited
Mean migrating cell counts per 1 mm^3 (monocyte) ([6]; antibody 0.4 μg/mL): 258.0 ± 71.9 counts per 1 mm^3
Mean migrating cell counts per 1 mm^3 (monocyte) ([6]; antibody 2 μg/mL): 256.7 ± 66.5 counts per 1 mm^3
Mean migrating cell counts per 1 mm^3 (monocyte) ([6]; antibody 10 μg/mL): 160.0 ± 56.9 counts per 1 mm^3
Mean migrating cell counts per 1 mm^3 (monocyte) ([6]; antibody 50 μg/mL): 75.0 ± 55.4 counts per 1 mm^3
inhibition of monocyte migration induced by CHO/OPN-a, thrombin-cleaved OPN and GST-N half [7]: apparently inhibits
reactivity with GST-N half [8]: reacted
reactivity with GST-OPN-a, GST-OPN-b, GST-OPN-c [9]: reacted
